The target of the assay is Angiotensin-converting enzyme 2 (recombinant human ACE2 protein-mFc Tag) (human) (UniProt Q9BYF1). The assay can be described thus: BLI.
UniProt Q9BYF1, sequence (Q9BYF1 18-740): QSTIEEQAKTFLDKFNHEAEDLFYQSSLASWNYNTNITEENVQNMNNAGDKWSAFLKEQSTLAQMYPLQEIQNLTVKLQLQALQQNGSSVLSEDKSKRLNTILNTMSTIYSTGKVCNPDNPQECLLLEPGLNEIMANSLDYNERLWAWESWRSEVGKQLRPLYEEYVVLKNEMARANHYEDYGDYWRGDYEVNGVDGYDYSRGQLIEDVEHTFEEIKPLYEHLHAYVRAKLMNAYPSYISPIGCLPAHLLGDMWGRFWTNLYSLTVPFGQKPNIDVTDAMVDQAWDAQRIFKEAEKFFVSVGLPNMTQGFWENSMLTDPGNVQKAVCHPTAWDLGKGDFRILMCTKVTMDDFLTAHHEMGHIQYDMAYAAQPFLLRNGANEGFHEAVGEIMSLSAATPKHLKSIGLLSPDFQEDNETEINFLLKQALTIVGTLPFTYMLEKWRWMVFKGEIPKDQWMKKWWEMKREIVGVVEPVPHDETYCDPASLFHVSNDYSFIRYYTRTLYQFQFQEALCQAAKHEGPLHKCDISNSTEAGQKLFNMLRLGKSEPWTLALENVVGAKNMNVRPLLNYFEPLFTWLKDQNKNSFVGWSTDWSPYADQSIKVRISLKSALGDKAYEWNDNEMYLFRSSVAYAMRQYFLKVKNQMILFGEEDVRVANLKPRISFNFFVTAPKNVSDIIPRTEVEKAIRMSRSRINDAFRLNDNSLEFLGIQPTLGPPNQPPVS

For Beta S1 protein (domain or fragment), the dissociation constant Kd came to 0.472 nM.
